2 molecules from US20040228849A1 (University of California, published 2004) can be followed below.

Changes are numbered by the printed parent chain.

For data set [1], the target named is T1, Flag-IKKβ.
T1 chain: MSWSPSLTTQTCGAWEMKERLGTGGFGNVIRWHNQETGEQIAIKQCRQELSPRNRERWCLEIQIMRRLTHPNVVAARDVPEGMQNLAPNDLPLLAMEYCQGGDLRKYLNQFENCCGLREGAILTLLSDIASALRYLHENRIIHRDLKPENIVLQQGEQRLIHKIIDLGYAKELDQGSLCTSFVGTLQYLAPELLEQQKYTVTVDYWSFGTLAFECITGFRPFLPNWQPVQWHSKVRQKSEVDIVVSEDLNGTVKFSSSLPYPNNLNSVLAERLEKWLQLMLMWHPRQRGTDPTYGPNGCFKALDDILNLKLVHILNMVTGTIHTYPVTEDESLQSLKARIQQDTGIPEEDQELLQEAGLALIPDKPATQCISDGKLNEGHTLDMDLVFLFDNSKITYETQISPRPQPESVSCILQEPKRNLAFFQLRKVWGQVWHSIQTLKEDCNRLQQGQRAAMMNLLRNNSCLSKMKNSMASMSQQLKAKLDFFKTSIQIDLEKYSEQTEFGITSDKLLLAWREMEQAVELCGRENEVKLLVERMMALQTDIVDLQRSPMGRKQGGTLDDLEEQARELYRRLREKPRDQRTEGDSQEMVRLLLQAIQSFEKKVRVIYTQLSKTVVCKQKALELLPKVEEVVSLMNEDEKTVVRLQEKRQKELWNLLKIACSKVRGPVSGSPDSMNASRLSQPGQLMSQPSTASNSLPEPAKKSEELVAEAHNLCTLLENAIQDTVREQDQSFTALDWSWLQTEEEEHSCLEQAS

Data set [2] addresses T2, Flag-IKKβ (human, UniProt O14920 1-756).
T2 construct: Transiently coexpressed in 293 cells
T2 sequence: T1 chain
The experiment in a line: coimmunoprecipitation from transfected 293 cells: anti-HA immune complexes probed with anti-Flag(M2).

In data set [3] the target is T3, IKKβ (full length human IKKβ subunit) (human, UniProt O14920 1-756).
T3 construct: Endogenous protein of HeLa cells; also called endogenous IKKβ; 87 kDa protein
T3 sequence: T1 chain
The experiment in a line: immunoprecipitation experiments, transfected mammalian cells.

Data set [4] deals with the molecule itself. The description is as above.

B1: HA-IKKα(LZ)^- (enzyme, not shown: small tags and cut ends)
chain: MERPPGLRPGAGGPWEMRERLGTGGFGNVCLYQHRELDLKIAIKSCRLELSTKNRERWCHEIQIMKKLNHANVVKACDVPEELNILIHDVPLLAMEYCSGGDLRKLLNKPENCCGLKESQILSLLSDIGSGIRYLHENKIIHRDLKPENIVLQDVGGKIIHKIIDLGYAKDVDQGSLCTSFVGTLQYLAPELFENKPYTATVDYWSFGTMVFECIAGYRPFLHHLQPFTWHEKIKKKDPKCIFACEEMSGEVRFSSHLPQPNSLCSLIVEPMENWLQLMLNWDPQQRGGPVDLTLKQPRCFVLMDHILNLKIVHILNMTSAKIISFLLPPDESLHSLQSRIERETGINTGSQELLSETGISLDPRKPASQCVLDGVRGCDSYMVYLFDKSKTVYEGPFASRSLSDCVNYIVQDSKIQLPIIQLRKVWAEAVHYVSGLKEDYSRLFQGQRAAMLSLLRYNANSTKMKNTSISASQQLKAKLEFFHKSIQLDLERYSEQMTYGISSEKMLKAWKEMEEKAIHYAEVGVIGYLEDQIMSLHAEIMELQKSPYGRRQGDLMESLEQRAIDLYKQLKHRPSDHSYSDSTEMVKIIVHTVQSQDRVLKERFGHLSKLLGCKQKIIDLLPKVEVALSNIKEADNTVMFMQGKRQKEIWHLLKIACTQSSARSLVGSSLEGAVTPQAYAWLAPDLAEHDHSLSCVVTPQDGETSAQMIEENLNCLGHLSTIIHEANEEQGNSMMNLDWSWLTE
notes: Leucine zipper mutant of IKKα; also called IKKα(LZ)^- mutant; IKKα LZ^- mutant
As for B1, the “IKK activity isolated by immunoprecipitation with anti-HA (IκB kinase activity)” value in the data set with Flag-IKKβ [1] is on record as “had no effect on the very low activity that coprecipitated with HA-IKKα(LZ)^-”. For the same molecule, in the data set with Flag-IKKβ [2], the binding result was “no binding”.

B2: IKKα (full length human IKKα subunit) (enzyme)
chain: B1 chain with S462L, S469L
notes: Endogenous protein of HeLa or 293 cells; also called endogenous IKKα; 85 kDa protein
In the case of B2, the binding result in data set [3] and in data set [4] was “binds” throughout.
